Article PMC12043515, “Stepwise neofunctionalization of the NF-κB family member Rel during vertebrate evolution”
Residue numbers refer to the chain shown, from its start.

Legend:
Rel RHR homodimer [1] = target: T1, Rel RHR homodimer (UniProt P15307 8-297); assay: SPR; less stable than κB2 and κB1; EMSA: 10 mM Tris-HCl pH 7.5, 150 mM NaCl, 1 mM DTT, 1 mM EDTA, 5% glycerol, 80 ng/ul dI-dC, 200 ng/ul BSA, 4 C; off-rate with 100-fold unlabeled consensus. SPR: 10 mM HEPES pH 7.5, 150 mM NaCl, 3 mM EDTA, 0.005% Tween 20, 10 C; conditions: protein: recombinant; chain copies: 2; label: biotin
T1 sequence (P15307 8-297): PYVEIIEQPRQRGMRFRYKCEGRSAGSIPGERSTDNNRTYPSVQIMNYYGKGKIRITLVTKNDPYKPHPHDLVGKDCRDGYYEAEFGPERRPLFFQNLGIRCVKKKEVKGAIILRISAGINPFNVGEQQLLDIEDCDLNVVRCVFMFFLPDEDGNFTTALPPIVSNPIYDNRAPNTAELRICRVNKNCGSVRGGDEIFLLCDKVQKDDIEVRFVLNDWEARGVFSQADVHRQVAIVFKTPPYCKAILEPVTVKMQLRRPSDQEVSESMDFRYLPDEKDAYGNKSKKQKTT

Rel RHR homodimer [2] = target: T1, Rel RHR homodimer; assay: SPR; less stable than κB2; EMSA: 10 mM Tris-HCl pH 7.5, 150 mM NaCl, 1 mM DTT, 1 mM EDTA, 5% glycerol, 80 ng/ul dI-dC, 200 ng/ul BSA, 4 C; off-rate with 100-fold unlabeled consensus. SPR: 10 mM HEPES pH 7.5, 150 mM NaCl, 3 mM EDTA, 0.005% Tween 20, 10 C; conditions: protein: recombinant; chain copies: 2; label: biotin
Rel RHR homodimer [3] = target: T1, Rel RHR homodimer; assay: EMSA; three dimers bound simultaneously; EMSA: 10 mM Tris-HCl pH 7.5, 150 mM NaCl, 1 mM DTT, 1 mM EDTA, 5% glycerol, 80 ng/ul dI-dC, 200 ng/ul BSA, 4 C; off-rate with 100-fold unlabeled consensus. SPR: 10 mM HEPES pH 7.5, 150 mM NaCl, 3 mM EDTA, 0.005% Tween 20, 10 C; conditions: protein: recombinant; chain copies: 2; label: 32P
RelA RHR homodimer = RelA RHR homodimer (UniProt Q04207 19-306); assay: EMSA; only one dimer bound; EMSA: 10 mM Tris-HCl pH 7.5, 150 mM NaCl, 1 mM DTT, 1 mM EDTA, 5% glycerol, 80 ng/ul dI-dC, 200 ng/ul BSA, 4 C; off-rate with 100-fold unlabeled consensus. SPR: 10 mM HEPES pH 7.5, 150 mM NaCl, 3 mM EDTA, 0.005% Tween 20, 10 C; conditions: protein: recombinant; chain copies: 2; label: 32P
Sequence of RelA RHR homodimer (Q04207 19-306): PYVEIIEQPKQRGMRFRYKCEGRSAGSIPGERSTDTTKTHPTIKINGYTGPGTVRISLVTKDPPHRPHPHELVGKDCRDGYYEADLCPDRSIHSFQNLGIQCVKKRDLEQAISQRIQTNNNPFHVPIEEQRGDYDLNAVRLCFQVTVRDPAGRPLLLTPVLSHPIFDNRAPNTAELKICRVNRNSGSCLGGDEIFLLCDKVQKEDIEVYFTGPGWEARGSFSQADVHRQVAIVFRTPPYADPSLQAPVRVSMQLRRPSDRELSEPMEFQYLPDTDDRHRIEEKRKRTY

Rel RHR homodimer [4] = target: T1, Rel RHR homodimer; assay: EMSA; EMSA: 10 mM Tris-HCl pH 7.5, 150 mM NaCl, 1 mM DTT, 1 mM EDTA, 5% glycerol, 80 ng/ul dI-dC, 200 ng/ul BSA, 4 C; off-rate with 100-fold unlabeled consensus. SPR: 10 mM HEPES pH 7.5, 150 mM NaCl, 3 mM EDTA, 0.005% Tween 20, 10 C; conditions: protein: recombinant; chain copies: 2; label: 32P
Rel RHR homodimer [5] = target: T1, Rel RHR homodimer; assay: SPR; slower off-rate than on …; EMSA: 10 mM Tris-HCl pH 7.5, 150 mM NaCl, 1 mM DTT, 1 mM EDTA, 5% glycerol, 80 ng/ul dI-dC, 200 ng/ul BSA, 4 C; off-rate with 100-fold unlabeled consensus. SPR: 10 mM HEPES pH 7.5, 150 mM NaCl, 3 mM EDTA, 0.005% Tween 20, 10 C; conditions: protein: recombinant; chain copies: 2; label: biotin
Rel RHR homodimer [6] = target: T1, Rel RHR homodimer; assay: SPR; most stable of Il12b motifs; EMSA: 10 mM Tris-HCl pH 7.5, 150 mM NaCl, 1 mM DTT, 1 mM EDTA, 5% glycerol, 80 ng/ul dI-dC, 200 ng/ul BSA, 4 C; off-rate with 100-fold unlabeled consensus. SPR: 10 mM HEPES pH 7.5, 150 mM NaCl, 3 mM EDTA, 0.005% Tween 20, 10 C; conditions: protein: recombinant; chain copies: 2; label: biotin

B1: κB3 (SPR) (dsDNA)
DNA 1: CCTAACATCAAGAATGTTTTTGATGTTAGG
DNA 2: CCTAACATCAAAAACATTCTTGATGTTAGG
binding result (Rel RHR homodimer [1]): binds

B2: κB1 (SPR) (dsDNA)
DNA 1: CCTAACATCAGGAACTTCTTTGATGTTAGG
DNA 2: CCTAACATCAAAGAAGTTCCTGATGTTAGG
binding result (Rel RHR homodimer [2]): binds

B3: κB1+2+3 (dsDNA)
DNA 1: AGGAACTTCTTAAAATTCCCCCAGAATGTTTTGACA
DNA 2: TGTCAAAACATTCTGGGGGAATTTTAAGAAGTTCCT
binding result (Rel RHR homodimer [3]): binds | binding result (RelA RHR homodimer): binds

B4: κB3 EMSA probe (dsDNA)
DNA 1: B1 DNA 1
DNA 2: B1 DNA 2
binding result (Rel RHR homodimer [4]): binds

B5: SPR GGGGGTTTTT (dsDNA)
DNA 1: CCTAACATCAGGGGGTTTTTTGATGTTAGG
DNA 2: CCTAACATCAAAAAACCCCCTGATGTTAGG
binding result (Rel RHR homodimer [5]): binds

B6: κB2 (SPR) (dsDNA)
DNA 1: B5 DNA 2 with A15T, C16T
DNA 2: B5 DNA 1 with G15A, T16A
binding result (Rel RHR homodimer [6]): binds

B7: κB2 EMSA probe (dsDNA)
DNA 1: CCTAACATCAAAAATTCCCCGATGTTAGG
DNA 2: CCTAACATCGGGGAATTTTTGATGTTAGG
binding result (Rel RHR homodimer [4]): binds

B8: κB1 EMSA probe (dsDNA)
DNA 1: B2 DNA 1
DNA 2: B2 DNA 2
binding result (Rel RHR homodimer [4]): binds
